The record followed here is publication doi:10.1101/2025.07.22.666130 (bioRxiv, 2025).

Substitutions are numbered along the chain they refer to. Numbers in names are those of the source. Read-outs that look alike come from different tables or passages of the source.

B1: GST-tagged RAD52 CTD (217-418) wild type (domain or fragment)
chain: PQLQQVTSPSRPSHAVIPADQDCSSRSLSSSAVESEATHQRKLRQKQLQQQFRERMEKQQVRVSTPSAEKSEAAPPAPPVTHSTPVTVSEPLLEKDFLAGVTQELIKTLEDNSEKWAVTPDAGDGVVKPSSRADPAQTSDTLALNNQMVTQNRTPHSVCHQKPQAKSGSWDLQTYSADQRTTGNWESHRKSQDMKKRKYDPS
B2: 15N-labeled RAD52-CTD (217-418), GST tag cleaved (domain or fragment)
chain: B1 chain
modifications: uniformly 15N labeled
B3: GST-tagged RAD52 CTD (217-418) L314A/V317N/L321Q/I322Q/L325A/W332A (domain or fragment, human, UniProt P43351 217-418, looked up)
chain: B1 chain with L98A, V101N, L105Q, I106Q, L109A, W116A
B4: no. 1 63-mer ssDNA (ssDNA)
DNA: ACAGCACCAGATTCAGCAATTAAGCTCTAAGCCATCCGCAAAAATGACCTCTTATCAAAAGGA
B5: no. 517 63-mer RNA (ssRNA)
RNA: UCCUUUUGAUAAGAGGUCAUUUUUGCGGAUGGCUUAGAGCUUAAUUGCUGAAUCUGGUGCUGU
B6: Human RPA70N (1-120) (domain or fragment)
chain: MVGQLSEGAIAAIMQKGDTNIKPILQVINIRPITTGNSPPRYRLLMSDGLNTLSSFMLATQLNPLVEEEQLSSNCVCQIHRFIVNTLKDGRRVVILMELEVLKSAEAVGVKIGNPVPYNE

The target in series [1] is T1, full-length RPA trimer (RPA70:RPA14:RPA32) (human, UniProt P27694;P15927;P35244). Kind of series: pull-down.
T1 sequence (P15927 whole entry, chain 2 of 2): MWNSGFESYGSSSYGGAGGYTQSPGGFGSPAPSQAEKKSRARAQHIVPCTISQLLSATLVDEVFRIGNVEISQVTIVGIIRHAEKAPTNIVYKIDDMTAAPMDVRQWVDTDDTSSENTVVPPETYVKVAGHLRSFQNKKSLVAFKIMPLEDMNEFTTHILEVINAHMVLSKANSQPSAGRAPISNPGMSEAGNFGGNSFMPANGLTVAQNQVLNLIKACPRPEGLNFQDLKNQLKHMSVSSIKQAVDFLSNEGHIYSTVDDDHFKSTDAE
T1 sequence (P35244 whole entry, chain 3 of 2): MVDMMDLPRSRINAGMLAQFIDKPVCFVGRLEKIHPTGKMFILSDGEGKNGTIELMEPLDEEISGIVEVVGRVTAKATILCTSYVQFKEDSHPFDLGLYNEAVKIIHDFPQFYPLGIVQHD
Series [2] addresses T1, full-length RPA trimer …. Kind of series: NMR titration.
Series [3] addresses T1, full-length RPA trimer …. Kind of series: pull-down. This is another data set of the same source.
In series [4] the target is T2, RAD52 full length (UniProt P43351 1-418).
T2 sequence: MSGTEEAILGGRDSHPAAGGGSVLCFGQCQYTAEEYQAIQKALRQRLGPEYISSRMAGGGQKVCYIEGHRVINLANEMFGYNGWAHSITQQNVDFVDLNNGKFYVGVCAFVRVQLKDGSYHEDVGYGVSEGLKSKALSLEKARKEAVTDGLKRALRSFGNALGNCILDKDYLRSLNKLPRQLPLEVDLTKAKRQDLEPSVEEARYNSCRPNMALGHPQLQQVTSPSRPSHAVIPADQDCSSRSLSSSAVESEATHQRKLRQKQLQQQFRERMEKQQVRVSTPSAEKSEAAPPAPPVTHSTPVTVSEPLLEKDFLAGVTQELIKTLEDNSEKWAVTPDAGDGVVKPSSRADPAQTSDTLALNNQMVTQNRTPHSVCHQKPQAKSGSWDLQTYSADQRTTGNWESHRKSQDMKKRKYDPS
The series can be described thus: EMSA. For orientation: Mobility shift assays separate free from complexed probe on a gel.

Series [5] has as its target T3, RAD52-CTD (UniProt P43351 217-418).
T3 sequence: B1 chain
The series can be described thus: EMSA.

For series [6], the target named is RPA heterotrimer (RPA70:RPA32:RPA14) (human, UniProt P27694;P15927;P35244 1-616;1-270;1-121). Kind of series: EMSA.
RPA heterotrimer (RPA70:RPA32:RPA14), sequence (P15927 whole entry, chain 2 of 2): as the sequence (P15927 whole entry, chain 2 of 2) above
RPA heterotrimer (RPA70:RPA32:RPA14), sequence (P35244 whole entry, chain 3 of 2): as the sequence (P35244 whole entry, chain 3 of 2) above
The target of series [7] is T2, RAD52 full length. Kind of series: EMSA. This is another data set of the same source.
For series [8], the target named is T3, RAD52-CTD. Kind of series: EMSA. The source holds these as a separate data set.
In series [9] the target is B2. Kind of series: NMR titration.

Turning to B1, the binding result in series [1] is “binds”.

With B2, the binding result in [2] is “binds”.

As for B3, the binding result in series [3] is listed as “binds”.

For B4, the values for the binding result with RAD52 full length [4] and with RAD52-CTD [5] were “binds” and “no binding”, respectively.

On to B5, for which the binding result is “binds” in series [6], “binds” in the series with RAD52 full length [7] and “no binding” with RAD52-CTD [8].

B6: in series [9], the binding result is “binds”.
